# In patent publication US20260115332A1, “Fibroblast Activation Protein Alpha-Cleavable Pro-Peptides and Methods of Use” (The Regents of the University of California, priority 2022, published 2026):
# Where no end group is shown, it is not given here.
# Experiments:
# recombinant human FAPα [1] = target: T1, recombinant human FAPα (Homo sapiens, UniProt Q12884); experiment: Multiplex substrate profiling by mass spectrometry (MSP-MS); assay type: biochemical; settings: for # of cleavages on MS: top P4-P4′ peptides cleaved by human FAP alpha; for # of cleavages on MSP-MS: human FAP alpha
# T1 sequence (Q12884 26-760 limits assumed): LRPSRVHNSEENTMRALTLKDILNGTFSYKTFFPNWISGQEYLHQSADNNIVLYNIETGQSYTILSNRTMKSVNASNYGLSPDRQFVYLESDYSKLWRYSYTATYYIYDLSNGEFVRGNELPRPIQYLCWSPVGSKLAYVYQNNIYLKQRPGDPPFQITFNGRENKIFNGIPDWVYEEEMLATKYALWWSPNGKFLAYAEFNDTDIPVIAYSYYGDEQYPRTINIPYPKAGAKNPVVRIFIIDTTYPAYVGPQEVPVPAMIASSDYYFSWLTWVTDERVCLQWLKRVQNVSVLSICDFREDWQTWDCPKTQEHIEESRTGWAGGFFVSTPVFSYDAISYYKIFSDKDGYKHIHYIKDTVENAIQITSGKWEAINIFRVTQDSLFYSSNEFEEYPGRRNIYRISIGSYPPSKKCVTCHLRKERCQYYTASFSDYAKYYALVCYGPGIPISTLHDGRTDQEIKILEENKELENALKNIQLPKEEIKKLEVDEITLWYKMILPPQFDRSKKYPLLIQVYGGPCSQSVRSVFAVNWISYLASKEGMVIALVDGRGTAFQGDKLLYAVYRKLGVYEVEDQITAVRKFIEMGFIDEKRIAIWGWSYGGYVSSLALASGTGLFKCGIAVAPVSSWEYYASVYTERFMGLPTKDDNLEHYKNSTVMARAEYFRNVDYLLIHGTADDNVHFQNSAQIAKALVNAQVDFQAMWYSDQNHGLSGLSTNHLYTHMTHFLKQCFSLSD
# Method: Although much is known about the substrate preferences for FAPα from P4-P1, an optimal P4-P4′ substrate sequence for FAPα has never been defined. In this example, multiplex substrate profiling by mass spectrometry (MSP-MS) was performed to identify candidate FAPα P4-P4′ substrate sequences for potential inclusion in a FAPα targeted restricted interaction peptide (or “FRIP”).
# Shown on the top of FIG. 3 is an Icelogo representing the cumulative amino acid preferences for recombinant human FAPα. Shown on the bottom of FIG. 3 is a heat map summarizing the amino acids that were most frequently incorporated at each site in the cleavage products. Lighter indicates an enriched amino acid. X=no preferred amino acid.
# A list of the top P4-P4′ peptides cleaved by human FAP alpha as determined using the MSP-MS substrate profiling technology are shown in the following table, where X indicates an undefined amino acid site.
# recombinant human FAPα [2] = target: T1, recombinant human FAPα; experiment: Kinetics of FRET donor/acceptor 8 mer substrates under Michaelis-Menten conditions; assay type: biochemical; settings: FRET donor/acceptor substrate adducts, human recombinant FAP alpha
# Method: Three top hits, […] (SEQ ID NO:38), […] (SEQ ID NO:40), and […] (SEQ ID NO:42), were selected for further analysis. An 8 mer peptide bearing FRET donor-acceptor dyes on the N and C terminus was synthesized and evaluated as a substrate for recombinant human FAPα (RND Systems) under Michaelis-Menten conditions.
# A table summarizing the kinetic properties of three of the top P4-P4′ 8 mer peptides emerging from the MSP-MS assay is provided below, where the kinetic properties were determined using FRET donor/acceptor substrate adducts and human recombinant FAP alpha.
Compound,# of cleavages on MS (recombinant human FAPα [1]),also measured
CN(CCCN1CCN(C(=O)CN2CCN(CC(=O)O)CCN(CC(=O)O)CCN(CC(=O)O)CC2)CC1)c1ccc2nccc(C(=O)NCC(=O)N3CC(F)(F)C[C@H]3C#N)c2c1 [FAPI 46],–,Tumor dose (Tumor dose per isotope; Ac-225): 720 Gy/mCi; Tumor dose (Tumor dose per isotope; Cu-64): 2 Gy/mCi; Tumor dose (Tumor dose per isotope; Cu-67): 11 Gy/mCi; Tumor dose (Tumor dose per isotope; Lu-177): 16 Gy/mCi; Tumor dose (Tumor dose per isotope; Y-90): 42 Gy/mCi
GMGPFHIV,12,–
HIGPTAAY (also: FRET fluorophore/quencher labels) [tested as 8 mer FRET peptide],43,# of cleavages on MSP-MS (recombinant human FAPα [1]): 43; Km (recombinant human FAPα [2]): 2.45 µM; kcat (recombinant human FAPα [2]): 0.2986 s⁻¹
HQGPFWML (also: FRET labels) [tested as 8 mer FRET peptide],30,# of cleavages on MSP-MS (recombinant human FAPα [1]): 30; Km (recombinant human FAPα [2]): 1.34 µM; kcat (recombinant human FAPα [2]): 0.1041 s⁻¹
HYGPTVNK (also: FRET labels) [tested as 8 mer FRET peptide],28,# of cleavages on MSP-MS (recombinant human FAPα [1]): 28; Km (recombinant human FAPα [2]): 2.7 µM; kcat (recombinant human FAPα [2]): 0.04031 s⁻¹
XSGPDYQK,14,–
XXFPNMWS,23,–
XXGPKLTY,28,–
XXGSQVFS,21,–
XXHPTKSF,16,–
XXIARQPW,14,–
XXIPTNIR,41,–
XXMPEEVA,17,–
XXWPMGMY,26,–
YHGPLAHX,98,–
